From the PETadex activity labels (doi:10.1042/bj20021862)
Residue numbers refer to the chain shown, from its start.

B1: unnamed (protein)
chain: MRPPWYPLHTPSLAFPLLFLLLSLLGGGARAEGREDPQLLVRVRGGQLRGIRLKAPGGPVSAFLGIPFAEPPVGSRRFMPPEPKRPWSGVLDATTFQNVCYQYVDTLYPGFEGTEMWNPNRELSEDCLYLNVWTPYPRPASPTPVLIWIYGGGFYSGAASLDVYDGRFLAQVEGAVLVSMNYRVGTFGFLALPGSREAPGNVGLLDQRLALQWVQENIAAFGGDPMSVTLFGESAGAASVGMHILSLPSRSLFHRAVLQSGTPNGPWATVSAGEARRRATLLARLVGCPPGGAGGNDTELIACLRTRPAQDLVDHEWHVLPQESIFRFSFVPVVDGDFLSDTPEALINTGDFQDLQVLVGVVKDEGSYFLVYGVPGFSKDNESLISRAQFLAGVRIGVPQASDLAAEAVVLHYTDWLHPEDPTHLRDAMSAVVGDHNVVCPVAQLAGRLAAQGARVYAYIFEHRASTLTWPLWMGVPHGYEIEFIFGLPLDPSLNYTTEERIFAQRLMKYWTNFARTGDPNDPRDSKSPQWPPYTTAAQQYVSLNLKPLEVRRGLRAQTCAFWNRFLPKLLSATDTLDEAERQWKAEFHRWSSYMVHWKNQFDHYSKQERCSDL
B2: unnamed (protein)
chain: B1 chain with F328L, Y368A
B3: unnamed (protein)
chain: B1 chain with F328I, Y368A
B4: unnamed (protein)
chain: B1 chain with E233Q, F326L, Y368A
B5: unnamed (protein)
chain: B1 chain with F326L, F328A, Y368A

Substrate: Acetylcholine
Conditions: pH 7; 22 °C

Protein | Km [µM] | kcat [s⁻¹] | kcat/Km [M⁻¹ s⁻¹]
B1 | 47 | 2500 | 5.32e+07
B2 | 100 | 667 | 6.67e+06
B3 | 340 | 233 | 686000
B4 | 100 | 167 | 1.67e+06
B5 | 190 | 183 | 965000
